Laboratory results published in patent US20020045192A1, “Arf and HDM2 interaction domains and methods of use thereof” (St. Jude Children's Research Hospital, priority 2001, published 2002).
Where no end group is shown, it is not given here.

Molecular target: T1, Hdm2 210-304 (Homo sapiens, UniProt Q00987)
T1 construct: poly-His (thrombin-cleavable, from pET28a) (cleaved yes); made in house; host or cells: E. coli BL21 (DE3)
Test: SPR binding of Arf library peptides to immobilized His-tagged Hdm2 210-304
Settings: 15 amino acid library peptides, binding for 10 minutes
Procedure: Binding studies were performed using a Biacore 3000 surface plasmon resonance (SPR) instrument (Biacore, Inc.). A Tetra-His™ Antibody (Qiagen, Inc.; Cat. #34670) was covalently attached to a carboxymethylated gold surface (C-1 chip; Biacore, Inc.). The carboxymethyl groups on the surface were activated with N-ethyl-N′-(3-dimethylaminopropyl) carbodiimide (EDC) and N-hydroxysuccinimide (NHS) and the antibody was attached at pH 7.4 in 20 mM sodium phosphate buffer, 150 mM NaCl (PBS). Reactive sites remaining on the surface were blocked by reaction with ethanolamine. […] Binding was measured by flowing the non-His-tagged analyte through the reference and ligand-containing flow cells in sequence. […] Changes in the SPR response due to solvent differences and the injection process were monitored by injection of HBS-N buffer alone. […]
Two libraries of peptides 15 amino acids in length were synthesized based on the sequence of exon 1β of mouse p19^Arf and the entire sequence of human p14^Arf. […] The ability of these peptides to bind Hdm2 fragments was determined using the surface plasmon resonance (SPR) technique with a Biacore 3000 instrument. […] Relative binding affinity was judged on the basis of the maximal SPR signal detected after binding for 10 minutes.

T1 sequence (Q00987 210-304): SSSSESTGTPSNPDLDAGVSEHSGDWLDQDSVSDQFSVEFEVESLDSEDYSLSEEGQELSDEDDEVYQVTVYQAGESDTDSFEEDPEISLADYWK

binding to Hdm2 210-304 (maximal SPR signal) | Substance
binds | human Arf residues 86-100: 15 amino acid human p14^Arf library peptide spanning residues 86-100, contains the NoLS RRPR (LRRPRHSHPTRARRC; not fully specified (N-terminus, C-terminus); UniProt Q8N726 86-100, looked up, fragment)
bind | mouse p19^Arf residues 31-45: 15 amino acid mouse p19^Arf library peptide spanning residues 31-45, contains the RRPR motif (RRPRTASCALAFVNM; UniProt Q64364 31-45, looked up, fragment)
